Reference: EP2168984B1 (Abbott GmbH & Co. KG, dated 2012)
Each block holds one binder with its values, some of them ahead of it.

Columns and labels:
recombinant human IL-12 [1] = biological target: T1, recombinant human IL-12 (human, UniProt P29459 23-219; P29460 23-328); experiment: cell-based or functional assay
T1 sequence (looked up) 1: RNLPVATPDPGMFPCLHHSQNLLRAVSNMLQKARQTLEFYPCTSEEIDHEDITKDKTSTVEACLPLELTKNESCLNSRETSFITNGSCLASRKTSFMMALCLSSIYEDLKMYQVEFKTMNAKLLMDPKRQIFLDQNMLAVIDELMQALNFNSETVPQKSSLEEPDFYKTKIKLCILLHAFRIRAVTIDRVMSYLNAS
T1 sequence (looked up) 2: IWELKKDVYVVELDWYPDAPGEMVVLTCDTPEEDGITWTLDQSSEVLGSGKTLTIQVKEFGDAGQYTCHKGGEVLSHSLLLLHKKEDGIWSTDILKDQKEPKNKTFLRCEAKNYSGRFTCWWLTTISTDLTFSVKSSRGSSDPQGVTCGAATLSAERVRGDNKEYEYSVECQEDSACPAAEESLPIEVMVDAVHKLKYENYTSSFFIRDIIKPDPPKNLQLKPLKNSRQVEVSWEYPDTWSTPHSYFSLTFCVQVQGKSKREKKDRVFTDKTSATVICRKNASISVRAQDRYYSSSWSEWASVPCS

Cyno IL-12 = biological target: T2, Cyno IL-12 (cynomolgus monkey); experiment: cell-based or functional assay
T2 chain 1: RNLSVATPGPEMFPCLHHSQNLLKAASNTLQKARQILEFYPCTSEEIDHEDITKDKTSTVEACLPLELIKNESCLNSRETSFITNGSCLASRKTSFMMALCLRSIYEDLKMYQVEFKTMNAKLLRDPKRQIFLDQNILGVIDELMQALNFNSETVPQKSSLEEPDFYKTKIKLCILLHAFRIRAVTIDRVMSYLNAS
T2 chain 2: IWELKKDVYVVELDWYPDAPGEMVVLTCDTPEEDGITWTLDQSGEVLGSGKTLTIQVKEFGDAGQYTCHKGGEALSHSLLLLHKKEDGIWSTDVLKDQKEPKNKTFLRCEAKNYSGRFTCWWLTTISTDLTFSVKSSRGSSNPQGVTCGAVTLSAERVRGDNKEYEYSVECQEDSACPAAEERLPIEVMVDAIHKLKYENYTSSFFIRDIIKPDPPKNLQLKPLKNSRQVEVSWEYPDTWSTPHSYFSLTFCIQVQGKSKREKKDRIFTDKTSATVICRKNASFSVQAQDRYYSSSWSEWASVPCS

recombinant human IL-12 [2] = biological target: T1, recombinant human IL-12; experiment: cell-based or functional assay; remark: listed apart in the source
recombinant human IL-12 [3] = biological target: T3, recombinant human IL-12 (human, UniProt P29459 23-219; P29460 23-328); experiment: BIAcore SPR, immobilised IL-12
T3 construct: disulfide-linked p35/p40 heterodimer; also called hIL-12; rhIL-12
T3 sequence (looked up) 1: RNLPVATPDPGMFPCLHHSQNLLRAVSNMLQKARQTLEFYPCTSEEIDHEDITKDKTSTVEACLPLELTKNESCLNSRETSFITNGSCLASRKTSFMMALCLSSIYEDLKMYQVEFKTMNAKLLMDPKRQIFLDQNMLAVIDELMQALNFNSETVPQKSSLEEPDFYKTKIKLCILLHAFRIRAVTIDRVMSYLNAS
T3 sequence (looked up) 2: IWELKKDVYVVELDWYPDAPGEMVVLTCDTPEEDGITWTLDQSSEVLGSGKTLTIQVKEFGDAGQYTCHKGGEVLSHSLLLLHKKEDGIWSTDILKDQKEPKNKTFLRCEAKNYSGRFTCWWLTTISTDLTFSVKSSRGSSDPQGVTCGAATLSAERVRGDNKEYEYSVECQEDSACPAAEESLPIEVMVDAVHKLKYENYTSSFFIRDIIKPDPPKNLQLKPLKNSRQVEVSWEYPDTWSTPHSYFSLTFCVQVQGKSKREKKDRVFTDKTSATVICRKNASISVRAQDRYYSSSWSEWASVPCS

Dog IL-12 = biological target: T4, Dog IL-12 (dog, UniProt Q28267 26-222; Q28268 23-329); experiment: cell-based or functional assay
T4 sequence (looked up) 1: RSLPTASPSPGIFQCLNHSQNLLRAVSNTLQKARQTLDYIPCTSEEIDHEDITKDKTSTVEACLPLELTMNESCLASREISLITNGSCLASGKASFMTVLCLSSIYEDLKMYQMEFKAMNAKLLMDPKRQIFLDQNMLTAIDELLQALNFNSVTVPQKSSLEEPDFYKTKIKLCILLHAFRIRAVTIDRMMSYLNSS
T4 sequence (looked up) 2: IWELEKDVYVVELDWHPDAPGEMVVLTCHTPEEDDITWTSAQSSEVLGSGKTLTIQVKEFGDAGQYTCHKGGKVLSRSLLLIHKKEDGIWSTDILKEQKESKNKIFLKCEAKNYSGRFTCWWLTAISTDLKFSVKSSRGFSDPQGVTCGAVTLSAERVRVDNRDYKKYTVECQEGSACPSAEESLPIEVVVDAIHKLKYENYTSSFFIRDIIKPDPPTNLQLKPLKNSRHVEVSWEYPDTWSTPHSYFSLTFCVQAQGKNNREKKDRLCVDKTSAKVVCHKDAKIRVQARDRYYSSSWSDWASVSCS

Rhesus IL-12 = biological target: T5, Rhesus IL-12 (rhesus monkey, UniProt P48091 23-219; P48095 23-328); experiment: cell-based or functional assay
T5 sequence (looked up) 1: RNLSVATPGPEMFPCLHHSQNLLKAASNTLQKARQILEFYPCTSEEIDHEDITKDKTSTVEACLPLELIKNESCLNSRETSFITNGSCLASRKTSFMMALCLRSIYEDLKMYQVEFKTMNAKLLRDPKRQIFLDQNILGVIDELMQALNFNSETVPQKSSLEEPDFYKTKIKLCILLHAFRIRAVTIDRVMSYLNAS
T5 sequence (looked up) 2: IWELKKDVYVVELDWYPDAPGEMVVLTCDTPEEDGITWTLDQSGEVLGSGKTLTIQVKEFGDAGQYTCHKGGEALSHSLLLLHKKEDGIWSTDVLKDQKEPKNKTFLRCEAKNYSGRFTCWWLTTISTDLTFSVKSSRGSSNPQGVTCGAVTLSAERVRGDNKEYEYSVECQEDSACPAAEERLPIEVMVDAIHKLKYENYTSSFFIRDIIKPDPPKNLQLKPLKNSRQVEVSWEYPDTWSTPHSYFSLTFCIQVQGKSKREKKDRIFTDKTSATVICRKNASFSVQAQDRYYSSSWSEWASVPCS

Baboon IL-12 = biological target: T6, Baboon IL-12 (baboon); experiment: cell-based or functional assay
T6 chain 1: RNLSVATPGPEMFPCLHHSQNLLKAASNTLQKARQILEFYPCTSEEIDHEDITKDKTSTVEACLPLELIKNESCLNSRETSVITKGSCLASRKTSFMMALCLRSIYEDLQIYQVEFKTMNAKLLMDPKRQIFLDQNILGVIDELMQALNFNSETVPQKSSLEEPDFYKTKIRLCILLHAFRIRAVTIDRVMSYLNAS
T6 chain 2: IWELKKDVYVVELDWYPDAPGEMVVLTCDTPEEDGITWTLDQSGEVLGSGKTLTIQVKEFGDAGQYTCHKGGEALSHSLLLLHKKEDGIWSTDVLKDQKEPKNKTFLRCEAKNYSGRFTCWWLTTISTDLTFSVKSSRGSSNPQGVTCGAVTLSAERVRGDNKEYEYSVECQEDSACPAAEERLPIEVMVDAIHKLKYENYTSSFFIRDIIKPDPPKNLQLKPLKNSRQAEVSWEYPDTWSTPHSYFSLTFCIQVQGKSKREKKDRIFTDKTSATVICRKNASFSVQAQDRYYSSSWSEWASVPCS

recombinant human IL-12 [4] = biological target: T1, recombinant human IL-12; experiment: cell-based or functional assay; remark: listed apart in the source

IC50 (M), species cross reactivity bioassay (recombinant human IL-12 [1]): 1.7e-10 M
IC50 (M), species cross reactivity bioassay (Cyno IL-12): 2.2e-10 M
B1: Y61 IgG (antibody, V domains shown)
VH: QVQLVQSGGGVVQPGRSLRLSCAASGFTFSSYGMHWVRQAPGKGLEWVAFIRYDGSNKYYADSVKGRFTISRDNSKNTLYLQMKSLRAEDTAVYYCKTHGSHDNWGQGTMVTVSS
VL: SYVLTQPPSVSGTPGQRVTISCSGGRSWIGSNTVKWYQQLPGTAPKLLIYGNDQRPSGVPDRFSGSKSGTSASLAITGVQAEDEADYYCQSYDRGTHPALLFGTGTKVTVLG

IFN gamma IC50 (recombinant human IL-12 [2]): 160 pM
B2: Y139 (scFv, V domains shown)
VH: QVQLVQSGGGVVQPGRSLRLSCAASGFTFSSYGMHWVRQAPGKGLEWVAFIRYDGSNKYYADSVKGRFTISRDNSKNTLYLQMKSLRAEDTAVYYCKTHGSHDNWGQGTMVTVSS
VL: SYVLTQPPSVSGTPGQRVTISCSGGRSNIGSNTVKWYQQLPGTAPKLLIYGNDQRPSGVPDRFSGSKSGTSASLAITGVQAEDEADYYCQSYDRGSHPALTFGTGTKVTVL

koff (recombinant human IL-12 [3]): 0.344 s⁻¹
B3: 177-H10 (scFv, V domains shown)
VH: QVQLVQSGGGVVQPGRSLRLSCAASGFTFSSYGMHWVRQAPGKGLEWVAFIRYDGSNKYYADSVKGRFTISRDNSKNTLYLQMKSLRAEDTAVYYCKTHGSHDNWGQGTMVTVSS
VL: SYVLTQPPSVSGTPGQRVTISCSGGRSNIGSNTVKWYQQLPGTAPKLLIYGNDQRPSGVPDRFSGSKSGTSASLAITGVQAEDEADYYCQSYDRGTHPTMYFGTGTKVTVL

IC50 (M), species cross reactivity bioassay (recombinant human IL-12 [1]): 5e-12 M
IC50 (M), species cross reactivity bioassay (Dog IL-12): 3.5e-10 M
IC50 (M), species cross reactivity bioassay (Rhesus IL-12): 1e-11 M
IC50 (M), species cross reactivity bioassay (Cyno IL-12): 1e-11 M
IC50 (M), species cross reactivity bioassay (Baboon IL-12): 1.5e-11 M
PHA blast Assay IC50 (recombinant human IL-12 [4]): 5.8 pM
B4: J695 (Y61-L94Y- L50Y IgG*) (antibody, V domains shown)
VH: QVQLVESGGGVVQPGRSLRLSCAASGFTFSSYGMHWVRQAPGKGLEWVAFIRYDGSNKYYADSVKGRFTISRDNSKNTLYLQMNSLRAEDTAVYYCKTHGSHDNWGQGTMVTVSS
VL: QSVLTQPPSVSGAPGQRVTISCSGSRSNIGSNTVKWYQQLPGTAPKLLIYYNDQRPSGVPDRFSGSKSGTSASLAITGLQAEDEADYYCQSYDRYTHPALLFGTGTKVTVLG
